Measurements reported in US10913773B2, “Bicyclic peptidyl inhibitor of tumor necrosis factor-alpha” (Ohio State Innovation Foundation, priority 2016, dated 2021).
Starred links: 1 amine or outer side, 2 acyl side, 3 side chain; linkers in the order of their positions; H or OH if unused. Positions of bridges follow the written chain, without caps; N, C: chain ends. Non-standard residues stand in square brackets, D forms with d. Residues, ends and D or L forms follow the SMILES beside them. Groups on a side chain read outwards from the residue. Primed or numbered codes have the meaning given here. No end group written: not given here. *: point of attachment. Lys(5-FITC)NH2 = NC(=O)[C@H](CCCCNC(=S)Nc1ccc2c(c1)C(=O)OC21c2ccc(O)cc2Oc2cc(O)ccc21)N*; FITC(3) = fluorescein isothiocyanate (N6-fluorescein-thiocarbamoyl on Lys); FITC = O=C1OC2(c3ccc(O)cc3Oc3cc(O)ccc32)c2ccc(NC(=S)*)cc21; Trimesoyl = O=C(c1cc(C(=O)[*:2])cc(C(=O)[*:3])c1)[*:1]; trimesoyl″ = benzene-1,3,5-tricarbonyl scaffold; FITC′ = fluorescein isothiocyanate, on Lys NZ; Phg = N[C@H](C(=O)O)c1ccccc1; 3Abz = Nc1cccc(C(=O)O)c1; Nle = CCCC[C@H](N)C(=O)O; Dap = NC[C@H](N)C(=O)O; AEEA = NCCOCCOCC(=O)O; NHiPr = CC(C)N*

Key:
[1] = molecular target: T1, TNFα (Homo sapiens, UniProt P01375); assay: Fluorescence anisotropy (FA) binding of fluorescently labeled bicyclic peptides to TNFα; details: for Kd: Table 5, residue 11 variants with Lys(FITC)
T1 construct: ybbR tag (13 aa) (N); made in house; host or cells: Escherichia coli
Description: FITC-labeled bicyclic peptide (50 or 100 nM) were incubated with varying concentrations of TNFα (0-5 μM) in 30 mM HEPES, pH 7.4, 150 mM NaCl, and 2 mM magnesium acetate for 2 h. The FA values were measured on a Molecular Devices Spectramax M5 spectrofluorimeter, with excitation and emission wavelengths at 485 and 525 nm, respectively. Equilibrium dissociation constants (KD) were determined by plotting the FA values as a function of TNFα concentration and fitting the data to the following equation
[formula] where Y is the measured anisotropy at a given TNFα concentration x; L is the bicyclic peptide concentration; Qb/Qf is the correction fact for dye-protein interaction; Amax is the maximum anisotropy when all the peptides are bound to TNFα, while Amin is the minimum anisotropy. Competition experiments were performed by incubating 100 nM Asn-Asn-Asn-Lys(FITC)-labeled anticachexin C1 (Table 1), 2 μM of TNFα, and varying concentrations of unlabeled competitor peptide (0-20 μM) in the above buffer for 2 h. The FA values were plotted against the competitor peptide concentration to determine the IC50 values.
To identify residues significant for TNFα binding, each residue of anticachexin C1 (other than D-alanine at position-3, L-lysine at position-4, and L-2,3-diaminopropionic acid (Dap) at position-10) was individually replaced with an alanine (or D-alanine). To facilitate binding analysis by fluorescence anisotropy (FA), a tetrapeptide NNNK (SEQ ID NO: 1) was added to the C-terminus of each bicyclic peptide and the lysine side chain was labeled with fluorescein isothiocyanate (FITC) during solid-phase synthesis (Scheme 1). The three asparagine residues were added to improve the aqueous solubility of the bicyclic peptides. The bicyclic peptide was prepared by first synthesizing the full-length linear sequence on Rink amide resin using standard Fmoc/HBTU chemistry. The side chains of the two internal cyclization residues, L-lysine and Dap, were protected with monomethoxytrityl (Mmt) groups, whereas the C-terminal lysine was protected with an allyloxycarbonyl (Alloc) group. After removal of the N-terminal Fmoc group, a trimesic acid was coupled to the N-terminal amine using HBTU as the coupling agent. Next, the Mmt groups were selectively removed from the Lys and Dap side chains by 2% TFA and the peptide was cyclized by treatment with (benzotriazol-1-yloxy)tripyrrolidinophosphonium hexafluorophosphate (PyBOP). The Alloc group on the C-terminal lysine side chain was removed by treatment with Pd(PPh3)4 and the bicyclic peptide was selectively labeled at the C-terminal lysine by treating the resin with FITC. […] On the other hand, phenylglycine (Phg)-1 and glycine-7 play more minor roles in binding.

[2] = molecular target: T2, TNFα-TNFR1 interaction (Homo sapiens, UniProt P01375); assay: ELISA inhibition of TNFα-TNFR1 interaction (immobilized biotinylated TNFα, TNFR1-HRP); type: binding
T2 construct: made in house; host or cells: Escherichia coli (TNFα)
Description: Inhibition of TNFα-TNRF1 interaction by ELISA was carried out as previously described (Lian, W.; et al., supra).
Because of its high-throughput capability, FA analysis had been used to generate all of the SAR data described above. […] To confirm the SAR data obtained by FA analysis, some of the compounds in Table 5 (as well as new compounds) were resynthesized without the Lys(FITC) label and employed a more sensitive ELISA-based assay to determine the IC50 values for inhibition of the TNFα-TNFR1 interaction. Briefly, biotinylated TNFα was immobilized onto a NeutrAvidin-coated surface. TNFR1 conjugated with horseradish peroxidase (HRP) (0.5 nM) was added along with different concentrations of a peptide inhibitor. After washing, the amount of bound TNFR1-HRP was quantitated by ELISA. […] In agreement with the FA results, either extension at the C-terminus of β-Ala with another amino acid (C1-67 to C1-70) or side-chain modification of β-Ala (C1-71 to C1-73) decreased TNFα binding.

[3] = molecular target: T3, Recombinant TNFα containing an N-terminal 13-aa ybbR tag (human, UniProt P01375 77-233, biotin at the ybbR tag in the ELISA assays); assay: FA, FITC-peptide + TNFα titration
T3 construct: Expressed in E. coli; Same construct used unlabelled (FA) and biotinylated on NeutrAvidin (ELISA); also called tumor necrosis factor-alpha; human TNFα; not shown: N-terminal 13-aa ybbR tag
T3 sequence (P01375 77-233): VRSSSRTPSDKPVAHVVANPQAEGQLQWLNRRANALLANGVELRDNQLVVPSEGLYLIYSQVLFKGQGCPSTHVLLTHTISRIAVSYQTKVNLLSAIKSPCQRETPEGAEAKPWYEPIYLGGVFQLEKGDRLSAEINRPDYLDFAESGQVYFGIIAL
Description: (§1) The FA values were measured on a Molecular Devices Spectramax M5 spectrofluorimeter, with excitation and emission wavelengths at 485 and 525 nm, respectively. Equilibrium dissociation constants (KD) were determined by plotting the FA values as a function of TNFα concentration and fitting the data to the following equation $$Y = \frac{\left(Amin + \left(Amax \times \frac{Q_b}{Q_f} - Amin\right)\left(\frac{(L+x+K_d) - \sqrt{((L+x+K_d)^2 - 4Lx)}}{2L}\right)\right)}{\left(1 + \left(\frac{Q_b}{Q_f} - 1\right)\left(\frac{(L+x+K_d) - \sqrt{((L+x+K_d)^2 - 4Lx)}}{2L}\right)\right)}$$
(§2) where Y is the measured anisotropy at a given TNFα concentration x; L is the bicyclic peptide concentration; Qb/Qf is the correction fact for dye-protein interaction; Amax is the maximum anisotropy when all the peptides are bound to TNFα, while $Amin$ is the minimum anisotropy. […] The FA values were plotted against the competitor peptide concentration to determine the IC$50$ values.

[4] = molecular target: T3, Recombinant TNFα containing an …; assay: FA; against C1
Description: as §1, §2

CCCC[C@@H]1NC(=O)c2cc3cc(c2)C(=O)NC[C@@H](C(=O)Nc2cn(C)cc2C(=O)NCCOCCOCC(=O)N[C@@H](CCCCNC(=S)Nc2ccc4c(c2)C(=O)OC42c4ccc(O)cc4Oc4cc(O)ccc42)C(N)=O)NC(=O)[C@H](Cc2c[nH]cn2)NC(=O)[C@@H](CCCCN)NC(=O)CNC(=O)[C@@H](Cc2c[nH]cn2)NC(=O)[C@H](Cc2c[nH]c4ccccc24)NC(=O)[C@H](CCCCNC3=O)NC(=O)[C@@H](CO)NC(=O)[C@H](Cc2ccc(O)cc2)NC1=O [Compound C1-65]
Kd [1]: 1900 ± 900 nM

CCCC[C@@H]1NC(=O)c2cc3cc(c2)C(=O)NC[C@@H](C(=O)N[C@@H](CCCCNC(=S)Nc2ccc4c(c2)C(=O)OC42c4ccc(O)cc4Oc4cc(O)ccc42)C(N)=O)NC(=O)[C@H](Cc2c[nH]cn2)NC(=O)[C@@H](CCCCN)NC(=O)CNC(=O)[C@@H](Cc2ccccc2)NC(=O)[C@H](Cc2ccc(O)cc2)NC(=O)[C@H](CCCCNC3=O)NC(=O)[C@@H](C)NC(=O)[C@H](Cc2ccc(O)cc2)NC1=O [Compound C1-5]
Increase of TNFα binding affinity (fold) ([1]; relative to comparator analogue named in text): ~2 fold

CCCC[C@@H]1NC(=O)c2cc3cc(c2)C(=O)NC[C@@H](C(=O)N[C@H]2CCC[C@@H]2C(=O)NCCOCCOCC(=O)N[C@@H](CCCCNC(=S)Nc2ccc4c(c2)C(=O)OC42c4ccc(O)cc4Oc4cc(O)ccc42)C(N)=O)NC(=O)[C@H](Cc2c[nH]cn2)NC(=O)[C@@H](CCCCN)NC(=O)CNC(=O)[C@@H](Cc2c[nH]cn2)NC(=O)[C@H](Cc2c[nH]c4ccccc24)NC(=O)[C@H](CCCCNC3=O)NC(=O)[C@@H](CO)NC(=O)[C@H](Cc2ccc(O)cc2)NC1=O [Compound C1-63]
Kd [1]: 160 ± 150 nM

CCCC[C@@H]1NC(=O)c2cc3cc(c2)C(=O)NC[C@@H](C(=O)N[C@@H](CC(=O)NCCOCCOCC(=O)N[C@@H](CCCCNC(=S)Nc2ccc4c(c2)C(=O)OC42c4ccc(O)cc4Oc4cc(O)ccc42)C(N)=O)C(=O)NC(C)C)NC(=O)[C@H](Cc2c[nH]cn2)NC(=O)[C@@H](CCCCN)NC(=O)CNC(=O)[C@@H](Cc2c[nH]cn2)NC(=O)[C@H](Cc2c[nH]c4ccccc24)NC(=O)[C@H](CCCCNC3=O)NC(=O)[C@@H](CO)NC(=O)[C@H](Cc2ccc(O)cc2)NC1=O [Compound C1-61] ([Nle]Y[dS]KW[dH]G[dK]H[Dap]D([AEEA-Lys(5-FITC)NH2])-NHiPr; linker N-4-10 via Trimesoyl)
Kd [1]: 420 ± 210 nM

CCCC[C@@H]1NC(=O)c2cc3cc(c2)C(=O)NC[C@@H](C(=O)N2CCC[C@@H](C(=O)NCCOCCOCC(=O)N[C@@H](CCCCNC(=S)Nc4ccc5c(c4)C(=O)OC54c5ccc(O)cc5Oc5cc(O)ccc54)C(N)=O)C2)NC(=O)[C@H](Cc2c[nH]cn2)NC(=O)[C@@H](CCCCN)NC(=O)CNC(=O)[C@@H](Cc2c[nH]cn2)NC(=O)[C@H](Cc2c[nH]c4ccccc24)NC(=O)[C@H](CCCCNC3=O)NC(=O)[C@@H](CO)NC(=O)[C@H](Cc2ccc(O)cc2)NC1=O [Compound C1-64]
Kd [1]: 340 ± 230 nM

CCCC[C@@H]1NC(=O)c2cc3cc(c2)C(=O)NC[C@@H](C(=O)Nc2cccc(C(N)=O)c2)NC(=O)[C@H](Cc2c[nH]cn2)NC(=O)[C@@H](CCCCN)NC(=O)CNC(=O)[C@@H](Cc2c[nH]cn2)NC(=O)[C@H](Cc2c[nH]c4ccccc24)NC(=O)[C@H](CCCCNC3=O)NC(=O)[C@@H](CO)NC(=O)[C@H](Cc2ccc(O)cc2)NC1=O [Compound C1-73] ([Nle]Y[dS]KW[dH]G[dK]H[Dap][3Abz]-NH2; linker N-4-10 via Trimesoyl)
IC50 ([2]; Table 5, peptides without Lys(FITC) label): 1700 ± 700 nM

CCCC[C@@H]1NC(=O)c2cc3cc(c2)C(=O)NC[C@@H](C(=O)N[C@@H](CCCCNC(=S)Nc2ccc4c(c2)C(=O)OC42c4ccc(O)cc4Oc4cc(O)ccc42)C(N)=O)NC(=O)[C@H](Cc2ccccc2)NC(=O)[C@@H](CCCCN)NC(=O)CNC(=O)[C@@H](Cc2c[nH]cn2)NC(=O)[C@H](Cc2c[nH]c4ccccc24)NC(=O)[C@H](CCCCNC3=O)NC(=O)[C@@H](CO)NC(=O)[C@H](Cc2ccc(O)cc2)NC1=O [Compound C1-50] ([Nle]Y[dS]KW[dH]G[dK]F[Dap]K(FITC)-NH2; linker N-4-10 via Trimesoyl)
Reduction of TNFα binding affinity (fold) ([1]; His-9 replaced with Phe, relative to parent): ~30 fold

CCCC[C@@H]1NC(=O)c2cc3cc(c2)C(=O)NC[C@@H](C(=O)N[C@@H](CC(=O)NCCOCCOCC(=O)N[C@@H](CCCCNC(=S)Nc2ccc4c(c2)C(=O)OC42c4ccc(O)cc4Oc4cc(O)ccc42)C(N)=O)C(=O)NCC)NC(=O)[C@H](Cc2c[nH]cn2)NC(=O)[C@@H](CCCCN)NC(=O)CNC(=O)[C@@H](Cc2c[nH]cn2)NC(=O)[C@H](Cc2c[nH]c4ccccc24)NC(=O)[C@H](CCCCNC3=O)NC(=O)[C@@H](CO)NC(=O)[C@H](Cc2ccc(O)cc2)NC1=O [Compound C1-60] ([Nle]Y[dS]KW[dH]G[dK]H[Dap]D([AEEA-Lys(5-FITC)NH2])-NHEt; linker N-4-10 via Trimesoyl)
Kd [1]: 380 ± 140 nM

CC(=O)[C@@H](Cc1ccc(O)cc1)NC(=O)[C@@H](CC(=O)O)NC(=O)C(N)CC(=O)O (stereo partly shown) [Compound C1-74-5]
IC50 ([2]; inhibition of TNFα-TNFR1 interaction, unlabeled peptides): 1350 ± 490 nM

[Phg]Y[dA]KY[dF]G[dA]H[Dap]NNNK(FITC(3))-NH2 (linker N-4-10 via trimesoyl″) [Anticachexin C1 D-Lys8 → D-Ala, NNNK(FITC)-tagged]
Kd [3]: 5900 nM
Fold of Affinity Reduction [4]: 7 fold

[Phg]Y[dA]KY[dF]A[dK]H[Dap]NNNK(FITC(3))-NH2 (linker N-4-10 via trimesoyl″) [Anticachexin C1 Gly7 → Ala, NNNK(FITC)-tagged]
Kd [3]: 1200 nM
Fold of Affinity Reduction [4]: 1.5 fold

B1: Anticachexin C1 Tyr2 → Ala, NNNK(FITC)-tagged (peptide)
peptide: [Phg]A[dA]KY[dF]G[dK]H[Dap]NNNK(FITC′)-NH2
modifications: bridge (positions not given here) via trimesoyl″; not fully specified (N-terminus, bridges); also: feature: K4 labeled with FITC
Kd [3]: 13000 nM
Fold of Affinity Reduction [4]: 14 fold

[Phg]Y[dA]KY[dA]G[dK]H[Dap]NNNK(FITC(3))-NH2 (linker N-4-10 via trimesoyl″) [Anticachexin C1 D-Phe6 → D-Ala, NNNK(FITC)-tagged]
Kd [3]: 3400 nM
Fold of Affinity Reduction [4]: 4 fold

[Phg]Y[dA]KY[dF]G[dK]A[Dap]NNNK(FITC(3))-NH2 (linker N-4-10 via trimesoyl″) [Anticachexin C1 His9 → Ala, NNNK(FITC)-tagged]
Kd [3]: 4400 nM
Fold of Affinity Reduction [4]: 5 fold
